The numbers were not newly measured in PMC3176300, which cites them from elsewhere.

The Kd is a measure of binding affinity in units of concentration.

In series [1] the target is α-Galactosidase A (Homo sapiens) (UniProt P06280). As to the kind of experiment: SPR. For orientation: SPR reads the build-up and loss of mass on a sensor chip optically.
The target in series [2] is Sortilin (Homo sapiens) (UniProt Q99523).
Series [3] concerns the target Megalin (UniProt P98164).

UniProt Q99523, sequence (Q99523 78-755): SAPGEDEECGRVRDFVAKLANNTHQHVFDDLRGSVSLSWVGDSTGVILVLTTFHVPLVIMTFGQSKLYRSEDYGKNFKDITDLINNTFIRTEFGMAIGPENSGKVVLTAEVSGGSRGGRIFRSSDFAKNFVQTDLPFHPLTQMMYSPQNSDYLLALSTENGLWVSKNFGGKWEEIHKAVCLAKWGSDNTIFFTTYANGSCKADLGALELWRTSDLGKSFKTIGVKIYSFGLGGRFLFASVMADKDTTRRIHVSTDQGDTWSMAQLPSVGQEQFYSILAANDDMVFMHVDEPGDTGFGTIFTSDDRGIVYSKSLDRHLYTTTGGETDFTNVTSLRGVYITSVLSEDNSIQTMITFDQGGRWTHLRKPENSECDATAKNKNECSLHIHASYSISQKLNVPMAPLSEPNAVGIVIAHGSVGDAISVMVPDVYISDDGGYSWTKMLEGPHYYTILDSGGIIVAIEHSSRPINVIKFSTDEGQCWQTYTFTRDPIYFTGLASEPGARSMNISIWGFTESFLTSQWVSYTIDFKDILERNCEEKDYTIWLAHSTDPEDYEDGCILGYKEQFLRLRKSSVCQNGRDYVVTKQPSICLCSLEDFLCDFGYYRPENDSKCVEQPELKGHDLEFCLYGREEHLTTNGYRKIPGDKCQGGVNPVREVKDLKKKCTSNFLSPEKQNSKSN
UniProt P06280, sequence (P06280 32-429): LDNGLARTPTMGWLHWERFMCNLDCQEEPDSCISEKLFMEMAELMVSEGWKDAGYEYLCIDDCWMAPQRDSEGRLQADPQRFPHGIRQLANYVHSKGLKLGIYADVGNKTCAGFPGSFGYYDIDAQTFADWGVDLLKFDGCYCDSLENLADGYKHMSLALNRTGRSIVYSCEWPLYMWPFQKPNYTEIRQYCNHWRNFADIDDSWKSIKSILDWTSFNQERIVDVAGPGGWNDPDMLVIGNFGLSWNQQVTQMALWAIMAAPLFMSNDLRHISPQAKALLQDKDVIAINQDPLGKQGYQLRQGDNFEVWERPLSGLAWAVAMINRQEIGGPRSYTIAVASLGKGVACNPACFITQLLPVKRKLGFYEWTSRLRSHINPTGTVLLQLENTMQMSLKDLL

On to Megalin (from UniProt P98164), for which the Kd in series [1] was 600 nM. Turning to RAP (from UniProt P30533), the equilibrium dissociation constant (Kd) is 78 nM in series [2] and 8 nM in series [3].
